Data from patent US20200140543A1 (Memorial Sloan Kettering, published 2020).

Target: T1, Recombinant human A33 protein (human, UniProt Q99795 22-235, limits assumed)
T1 construct: Bought protein, immobilized on the sensor chip by amine coupling; also called human A33 antigen; A33 glycoprotein antigen
T1 sequence (looked up): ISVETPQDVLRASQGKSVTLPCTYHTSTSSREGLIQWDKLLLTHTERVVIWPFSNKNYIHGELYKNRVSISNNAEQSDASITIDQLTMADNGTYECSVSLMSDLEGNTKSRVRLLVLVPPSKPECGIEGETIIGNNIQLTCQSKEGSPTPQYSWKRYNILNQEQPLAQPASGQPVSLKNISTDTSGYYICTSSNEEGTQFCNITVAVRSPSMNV
Test: SPR, Biacore T100; A33 immobilized by amine coupling, antibody as analyte, bivalent analyte model
Method: Binding affinity was measured by Biacore T100.
Biacore T100 Biosensor, CMS sensor chip, and related reagents were purchased from GE Healthcare. Recombinant human A33 protein was purchased from Novoprotein. A BSA-(Y)-DOTA-Bn conjugate was prepared as described (Cheal et al., supra). A33 and DOTA antigens were immobilized using the Amino Coupling kit (GE Healthcare). Purified bispecific antibodies and control antibodies were analyzed, and data were fit to a bivalent analyte model using the Biacore T100 evaluation software as described (Cheal et al., supra).

B1: huA33-IgG1 (monospecific humanized antibody A33) (antibody, V domains shown)
VH: EVQLVESGGGLVKPGGSLRLSCAASGFAFSTYDMSWVRQAPGKRLEWVATISSGGSYTYYLDSVKGRFTISRDNAKNSLYLQMNSLRAEDTAVYYCAPTTVVPFAYWGQGTLVTVSS
VL: DIQMTQSQSSLSTSVGDRVTITCKASQNVRTVVAWYQQKPGKSPKTLIYLASNRHTGVPSRFSGSGSGTEFTLTISNVQPEDFADYFCLQHWSYPLTFGSGTKLEIKR
- Kd: 0.00171 µM
- koff: 0.00105 s⁻¹
- kon: 614000 M⁻¹ s⁻¹

B2: huA33-C825 bispecific antibody (humanized A33 IgG1-murine C825 scFv) (bispecific antibody)
heavy: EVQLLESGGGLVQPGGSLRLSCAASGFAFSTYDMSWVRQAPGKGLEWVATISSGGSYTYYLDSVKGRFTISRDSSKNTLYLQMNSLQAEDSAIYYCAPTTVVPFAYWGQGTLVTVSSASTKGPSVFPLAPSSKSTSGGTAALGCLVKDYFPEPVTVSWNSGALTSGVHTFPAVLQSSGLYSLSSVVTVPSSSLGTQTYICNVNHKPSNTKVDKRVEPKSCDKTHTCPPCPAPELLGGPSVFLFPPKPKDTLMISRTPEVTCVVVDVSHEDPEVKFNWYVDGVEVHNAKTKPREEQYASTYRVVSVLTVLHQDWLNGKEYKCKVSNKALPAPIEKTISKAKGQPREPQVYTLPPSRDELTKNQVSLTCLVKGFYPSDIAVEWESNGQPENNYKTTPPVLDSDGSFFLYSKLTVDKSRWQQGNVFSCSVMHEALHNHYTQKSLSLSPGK
light: DIQMTQSPSSLSVSVGDRVTITCKASQNVRTVVAWYQQKPGLAPKTLIYLASNRHTGVPSRFSGSGSGTDFTFTISSLQPEDIATYFCQQHWSYPLTFGQGTKVEVKRTVAAPSVFIFPPSDEQLKSGTASVVCLLNNFYPREAKVQWKVDNALQSGNSQESVTEQDSKDSTYSLSSTLTLSKADYEKHKVYACEVTHQGLSSPVTKSFNRGECGGGGSGGGGSASHVKLQESGPGLVQPSQSLSLTCTVSGFSLTDYGVHWVRQSPGKGLEWLGVIWSGGGTAYNTALISRLNIYRDNSKNQVFLEMNSLQAEDTAMYYCARRGSYPYNYFDAWGCGTTVTVSSGGGGSGGGGSGGGGSQAVVIQESALTTPPGETVTLTCGSSTGAVTASNYANWVQEKPDHCFTGLIGGHNNRPPGVPARFSGSLIGDKAALTIAGTQTEDEAIYFCALWYSDHWVIGGGTRLTVLG
notes: IgG-scFv format: the anti-DOTA-Bn scFv C825 is linked to the carboxyl end of the huA33 light chain; also called anti-A33/anti-DOTA-Bn (metal) bispecific antibody
- Kd: 0.0635 µM
- koff: 0.00581 s⁻¹
- kon: 91500 M⁻¹ s⁻¹
